For this assay, the target named is Fab fragment of neutralizing antibody HCV1.
Sequence of Fab fragment of neutralizing antibody HCV1 (heavy, as listed by the source, chain 1 of 2): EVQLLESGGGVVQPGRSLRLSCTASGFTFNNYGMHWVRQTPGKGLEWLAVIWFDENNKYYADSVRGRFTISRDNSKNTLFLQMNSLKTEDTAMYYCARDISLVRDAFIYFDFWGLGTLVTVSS
Sequence of Fab fragment of neutralizing antibody HCV1 (light, as listed by the source, chain 2 of 2): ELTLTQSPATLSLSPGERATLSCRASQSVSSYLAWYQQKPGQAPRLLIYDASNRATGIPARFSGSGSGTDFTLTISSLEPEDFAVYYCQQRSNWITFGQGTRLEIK

Sequence of soluble HCV E2 ectodomain (sE2) (domain or fragment) (Q99IB8 384-719): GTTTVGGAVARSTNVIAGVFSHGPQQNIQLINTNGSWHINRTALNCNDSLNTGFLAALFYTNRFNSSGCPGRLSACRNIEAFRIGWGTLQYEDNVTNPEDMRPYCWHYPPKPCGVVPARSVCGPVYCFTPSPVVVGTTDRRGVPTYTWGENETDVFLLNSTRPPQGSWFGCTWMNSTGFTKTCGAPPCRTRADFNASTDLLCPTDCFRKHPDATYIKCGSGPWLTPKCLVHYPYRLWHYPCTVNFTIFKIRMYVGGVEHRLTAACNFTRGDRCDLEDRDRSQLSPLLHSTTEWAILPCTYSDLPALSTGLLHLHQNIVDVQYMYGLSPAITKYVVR

In turn, “soluble HCV E2 ectodomain (sE2) (domain or fragment)” came in with a Kd of 0.294 µM, a koff of 0.00435 s⁻¹ and a kon of 14800 M⁻¹ s⁻¹.
